Measured values from publication PMC8809517, “Cofactor-independent RNA editing by a synthetic S-type PPR protein”.
Residue numbers refer to the chain shown, from its start.

B1: Cy5-rpoA-G (ssRNA)
RNA: AUUAGACGUGA
B2: Cy5-rpoA (ssRNA)
RNA: AUUACACGUGA
B3: IR-rpoA-A (ssRNA)
RNA: AUUAAACGUGA
B4: IR-rpoA-U (ssRNA)
RNA: AUUAUACGUGA

Key:
Assay in all cases: high-throughput RNA pulldown from lysate on Ni-NTA beads; HRP: 50 mM Tris pH 8, 150 mM NaCl, 1 mM beta-mercaptoethanol, 50 ug/ml BSA, 3 ug/ml yeast RNA, 0.5% heparin; ITC and FP: Tris pH 8, 200 mM KCl, 5% glycerol; MST: 50 mM Tris pH 8, 200 mM NaCl, 1 mM DTT, BSA, heparin, 0.05% Tween 20
Conditions in all cases: tags: N-terminal His-eGFP
[1] = molecular target: T1, GFP-9S library array, motif 4 ND N98P;D124W (synthetic construct, N98P;D124W)
T1 chain: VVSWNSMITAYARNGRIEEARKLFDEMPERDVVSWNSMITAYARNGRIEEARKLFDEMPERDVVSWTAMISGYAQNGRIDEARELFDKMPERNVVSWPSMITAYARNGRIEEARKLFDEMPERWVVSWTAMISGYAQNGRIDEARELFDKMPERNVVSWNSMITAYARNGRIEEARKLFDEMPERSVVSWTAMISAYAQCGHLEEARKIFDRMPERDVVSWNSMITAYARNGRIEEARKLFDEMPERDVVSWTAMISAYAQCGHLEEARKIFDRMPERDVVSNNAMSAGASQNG

[2] = molecular target: T2, GFP-9S library array, motif 4 ND N98R;D124G (synthetic construct, N98R;D124G)
T2 chain: T1 chain with P98R, W124G

[3] = molecular target: T3, GFP-9S library array, motif 4 ND N98E;D124T (synthetic construct, N98E;D124T)
T3 chain: T1 chain with P98E, W124T

[4] = molecular target: T4, GFP-9S library array, motif 4 ND N98T;D124P (synthetic construct, N98T;D124P)
T4 chain: T1 chain with P98T, W124P

[5] = molecular target: T5, GFP-9S library array, motif 4 ND N98K;D124T (synthetic construct, N98K;D124T)
T5 chain: T1 chain with P98K, W124T

Binder	Kd ([1]; label: 5' Cy5) [nM]	Kd ([2]; label: 5' Cy5) [nM]	Kd ([3]; label: 5' Cy5) [nM]	Kd ([4]; label: 5' Cy5) [nM]	Kd ([5]; label: 5' Cy5) [nM]	Kd ([1]; label: 5' IRDye 800CW) [nM]	Kd ([2]; label: 5' IRDye 800CW) [nM]	Kd ([3]; label: 5' IRDye 800CW) [nM]	Kd ([4]; label: 5' IRDye 800CW) [nM]	Kd ([5]; label: 5' IRDye 800CW) [nM]
B1	77.7	102	123	90.3	83.6	–	–	–	–	–
B2	69.3	74.7	130	92.4	76.8	–	–	–	–	–
B3	–	–	–	–	–	44.6	191	339	107	211
B4	–	–	–	–	–	81.9	97.3	476	113	212
